Test results as given in US20050118674A1, “Engineering of Controlled Deamidation Rates in Peptides, Proteins, and Similar Structures” (priority 2003, published 2005).

Experiment: First-order nonenzymatic deamidation of pentapeptides in Tris buffer
Format: physicochemical
Settings: 0.15 M Tris HCl; for First-Order Deamidation Halftimes of GlyXxxAsnYyyGly: pH 7.4, 37.0° C., Asn pentapeptides; for First-Order Deamidation Halftimes of GlyXxxGlnYyyGly: pH 7.4, 37.0 ° C., Gln pentapeptides, 52 values measured, rest derived from surface fitting
In short: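 Pentapeptides containing Asn or Gln in varied flanking sequences incubated at 37° C., pH 7.4, 0.15 M Tris buffer; first-order deamidation rates measured. Some Asn values estimated from remaining data; many Gln values derived from surface fitting rather than measured.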

Substance: GlySerAsnSerGly (GSNSG; printed: GlySerAsnSerGly)
- First-Order Deamidation Halftimes of GlyXxxAsnYyyGly: 15.1 days

Substance: GlySerAsnThrGly (GSNTG; printed: GlySerAsnThrGly)
- First-Order Deamidation Halftimes of GlyXxxAsnYyyGly: 45.7 days

Substance: GlySerAsnTrpGly (GSNWG; printed: GlySerAsnTrpGly)
- First-Order Deamidation Halftimes of GlyXxxAsnYyyGly: 76.8 days

Substance: GlySerAsnTyrGly (GSNYG; printed: GlySerAsnTyrGly)
- First-Order Deamidation Halftimes of GlyXxxAsnYyyGly: 64.7 days

Substance: GlySerAsnValGly (GSNVG; printed: GlySerAsnValGly)
- First-Order Deamidation Halftimes of GlyXxxAsnYyyGly: 233 days

Substance: GlySerGlnAlaGly (GSQAG; printed: GlySerGlnAlaGly)
- First-Order Deamidation Halftimes of GlyXxxGlnYyyGly: 6400 days

Substance: GlySerGlnArgGly (GSQRG; printed: GlySerGlnArgGly)
- First-Order Deamidation Halftimes of GlyXxxGlnYyyGly: 7200 days

Substance: GlySerGlnAspGly (GSQDG; printed: GlySerGlnAspGly)
- First-Order Deamidation Halftimes of GlyXxxGlnYyyGly: 8200 days

Substance: GlySerGlnCysGly (GSQCG; printed: GlySerGlnCysGly)
- First-Order Deamidation Halftimes of GlyXxxGlnYyyGly: 2100 days

Substance: GlySerGlnGluGly (GSQEG; printed: GlySerGlnGluGly)
- First-Order Deamidation Halftimes of GlyXxxGlnYyyGly: 8100 days

Substance: GlySerGlnGlyGly (GSQGG; printed: GlySerGlnGlyGly)
- First-Order Deamidation Halftimes of GlyXxxGlnYyyGly: 700 days

Substance: GlySerGlnHisGly (GSQHG; printed: GlySerGlnHisGly)
- First-Order Deamidation Halftimes of GlyXxxGlnYyyGly: 6500 days

Substance: GlySerGlnIleGly (GSQIG; printed: GlySerGlnIleGly)
- First-Order Deamidation Halftimes of GlyXxxGlnYyyGly: 5900 days

Substance: GlySerGlnLeuGly (GSQLG; printed: GlySerGlnLeuGly)
- First-Order Deamidation Halftimes of GlyXxxGlnYyyGly: 6100 days

Substance: GlySerGlnLysGly (GSQKG; printed: GlySerGlnLysGly)
- First-Order Deamidation Halftimes of GlyXxxGlnYyyGly: 6300 days

Substance: GlySerGlnMetGly (GSQMG; printed: GlySerGlnMetGly)
- First-Order Deamidation Halftimes of GlyXxxGlnYyyGly: 5100 days

Substance: GlySerGlnPheGly (GSQFG; printed: GlySerGlnPheGly)
- First-Order Deamidation Halftimes of GlyXxxGlnYyyGly: 8300 days

Substance: GlySerGlnProGly (GSQPG; printed: GlySerGlnProGly)
- First-Order Deamidation Halftimes of GlyXxxGlnYyyGly: 10000 days

Substance: GlySerGlnSerGly (GSQSG; printed: GlySerGlnSerGly)
- First-Order Deamidation Halftimes of GlyXxxGlnYyyGly: 6000 days

Substance: GlySerGlnThrGly (GSQTG; printed: GlySerGlnThrGly)
- First-Order Deamidation Halftimes of GlyXxxGlnYyyGly: 5400 days

Substance: GlySerGlnTrpGly (GSQWG; printed: GlySerGlnTrpGly)
- First-Order Deamidation Halftimes of GlyXxxGlnYyyGly: 17000 days

Substance: GlySerGlnTyrGly (GSQYG; printed: GlySerGlnTyrGly)
- First-Order Deamidation Halftimes of GlyXxxGlnYyyGly: 13000 days

Substance: GlySerGlnValGly (GSQVG; printed: GlySerGlnValGly)
- First-Order Deamidation Halftimes of GlyXxxGlnYyyGly: 6800 days

Substance: GlyThrAsnAlaGly (GTNAG; printed: GlyThrAsnAlaGly)
- First-Order Deamidation Halftimes of GlyXxxAsnYyyGly: 24.6 days

Substance: GlyThrAsnAmCysGly
- First-Order Deamidation Halftimes of GlyXxxAsnYyyGly: 34.4 days

Substance: GlyThrAsnArgGly (GTNRG; printed: GlyThrAsnArgGly)
- First-Order Deamidation Halftimes of GlyXxxAsnYyyGly: 51.2 days

Substance: GlyThrAsnAspGly (GTNDG; printed: GlyThrAsnAspGly)
- First-Order Deamidation Halftimes of GlyXxxAsnYyyGly: 27.9 days

Substance: GlyThrAsnCysGly (GTNCG; printed: GlyThrAsnCysGly)
- First-Order Deamidation Halftimes of GlyXxxAsnYyyGly: 55.5 days

Substance: GlyThrAsnGluGly (GTNEG; printed: GlyThrAsnGluGly)
- First-Order Deamidation Halftimes of GlyXxxAsnYyyGly: 60.8 days

Substance: GlyThrAsnGlyGly (GTNGG; printed: GlyThrAsnGlyGly)
- First-Order Deamidation Halftimes of GlyXxxAsnYyyGly: 1.04 days

Substance: GlyThrAsnHisGly (GTNHG; printed: GlyThrAsnHisGly)
- First-Order Deamidation Halftimes of GlyXxxAsnYyyGly: 9.6 days

Substance: GlyThrAsnIleGly (GTNIG; printed: GlyThrAsnIleGly)
- First-Order Deamidation Halftimes of GlyXxxAsnYyyGly: 279 days

Substance: GlyThrAsnLeuGly (GTNLG; printed: GlyThrAsnLeuGly)
- First-Order Deamidation Halftimes of GlyXxxAsnYyyGly: 110 days

Substance: GlyThrAsnLysGly (GTNKG; printed: GlyThrAsnLysGly)
- First-Order Deamidation Halftimes of GlyXxxAsnYyyGly: 57.6 days

Substance: GlyThrAsnMetGly (GTNMG; printed: GlyThrAsnMetGly)
- First-Order Deamidation Halftimes of GlyXxxAsnYyyGly: 47.6 days

Substance: GlyThrAsnPheGly (GTNFG; printed: GlyThrAsnPheGly)
- First-Order Deamidation Halftimes of GlyXxxAsnYyyGly: 76.4 days

Substance: GlyThrAsnProGly (GTNPG; printed: GlyThrAsnProGly)
- First-Order Deamidation Halftimes of GlyXxxAsnYyyGly: 6290 days

Substance: GlyThrAsnSerGly (GTNSG; printed: GlyThrAsnSerGly)
- First-Order Deamidation Halftimes of GlyXxxAsnYyyGly: 17.1 days

Substance: GlyThrAsnThrGly (GTNTG; printed: GlyThrAsnThrGly)
- First-Order Deamidation Halftimes of GlyXxxAsnYyyGly: 50.0 days

Substance: GlyThrAsnTrpGly (GTNWG; printed: GlyThrAsnTrpGly)
- First-Order Deamidation Halftimes of GlyXxxAsnYyyGly: 72.5 days

Substance: GlyThrAsnTyrGly (GTNYG; printed: GlyThrAsnTyrGly)
- First-Order Deamidation Halftimes of GlyXxxAsnYyyGly: 80.6 days

Substance: GlyThrAsnValGly (GTNVG; printed: GlyThrAsnValGly)
- First-Order Deamidation Halftimes of GlyXxxAsnYyyGly: 237 days

Substance: GlyThrGlnAlaGly (GTQAG; printed: GlyThrGlnAlaGly)
- First-Order Deamidation Halftimes of GlyXxxGlnYyyGly: 4300 days

Substance: GlyThrGlnArgGly (GTQRG; printed: GlyThrGlnArgGly)
- First-Order Deamidation Halftimes of GlyXxxGlnYyyGly: 5100 days

Substance: GlyThrGlnAspGly (GTQDG; printed: GlyThrGlnAspGly)
- First-Order Deamidation Halftimes of GlyXxxGlnYyyGly: 6300 days

Substance: GlyThrGlnCysGly (GTQCG; printed: GlyThrGlnCysGly)
- First-Order Deamidation Halftimes of GlyXxxGlnYyyGly: 1000 days

Substance: GlyThrGlnGluGly (GTQEG; printed: GlyThrGlnGluGly)
- First-Order Deamidation Halftimes of GlyXxxGlnYyyGly: 5900 days

Substance: GlyThrGlnGlyGly (GTQGG; printed: GlyThrGlnGlyGly)
- First-Order Deamidation Halftimes of GlyXxxGlnYyyGly: 670 days

Substance: GlyThrGlnHisGly (GTQHG; printed: GlyThrGlnHisGly)
- First-Order Deamidation Halftimes of GlyXxxGlnYyyGly: 4500 days

Substance: GlyThrGlnIleGly (GTQIG; printed: GlyThrGlnIleGly)
- First-Order Deamidation Halftimes of GlyXxxGlnYyyGly: 5300 days

Substance: GlyThrGlnLeuGly (GTQLG; printed: GlyThrGlnLeuGly)
- First-Order Deamidation Halftimes of GlyXxxGlnYyyGly: 5200 days

Substance: GlyThrGlnLysGly (GTQKG; printed: GlyThrGlnLysGly)
- First-Order Deamidation Halftimes of GlyXxxGlnYyyGly: 4800 days

Substance: GlyThrGlnMetGly (GTQMG; printed: GlyThrGlnMetGly)
- First-Order Deamidation Halftimes of GlyXxxGlnYyyGly: 3700 days

Substance: GlyThrGlnPheGly (GTQFG; printed: GlyThrGlnPheGly)
- First-Order Deamidation Halftimes of GlyXxxGlnYyyGly: 6800 days

Substance: GlyThrGlnProGly (GTQPG; printed: GlyThrGlnProGly)
- First-Order Deamidation Halftimes of GlyXxxGlnYyyGly: 7500 days

Substance: GlyThrGlnSerGly (GTQSG; printed: GlyThrGlnSerGly)
- First-Order Deamidation Halftimes of GlyXxxGlnYyyGly: 4200 days

Substance: GlyThrGlnThrGly (GTQTG; printed: GlyThrGlnThrGly)
- First-Order Deamidation Halftimes of GlyXxxGlnYyyGly: 4000 days

Substance: GlyThrGlnTrpGly (GTQWG; printed: GlyThrGlnTrpGly)
- First-Order Deamidation Halftimes of GlyXxxGlnYyyGly: 9700 days

Substance: GlyThrGlnTyrGly (GTQYG; printed: GlyThrGlnTyrGly)
- First-Order Deamidation Halftimes of GlyXxxGlnYyyGly: 8400 days

Substance: GlyThrGlnValGly (GTQVG; printed: GlyThrGlnValGly)
- First-Order Deamidation Halftimes of GlyXxxGlnYyyGly: 5100 days

Substance: GlyTrpAsnAlaGly (GWNAG; printed: GlyTrpAsnAlaGly)
- First-Order Deamidation Halftimes of GlyXxxAsnYyyGly: 30.7 days

Substance: GlyTrpAsnAmCysGly
- First-Order Deamidation Halftimes of GlyXxxAsnYyyGly: 42.9 days

Substance: GlyTrpAsnArgGly (GWNRG; printed: GlyTrpAsnArgGly)
- First-Order Deamidation Halftimes of GlyXxxAsnYyyGly: 73.9 days

Substance: GlyTrpAsnAspGly (GWNDG; printed: GlyTrpAsnAspGly)
- First-Order Deamidation Halftimes of GlyXxxAsnYyyGly: 43.6 days

Substance: GlyTrpAsnCysGly (GWNCG; printed: GlyTrpAsnCysGly)
- First-Order Deamidation Halftimes of GlyXxxAsnYyyGly: 83.1 days

Substance: GlyTrpAsnGluGly (GWNEG; printed: GlyTrpAsnGluGly)
- First-Order Deamidation Halftimes of GlyXxxAsnYyyGly: 75.7 days

Substance: GlyTrpAsnGlyGly (GWNGG; printed: GlyTrpAsnGlyGly)
- First-Order Deamidation Halftimes of GlyXxxAsnYyyGly: 1.75 days

Substance: GlyTrpAsnHisGly (GWNHG; printed: GlyTrpAsnHisGly)
- First-Order Deamidation Halftimes of GlyXxxAsnYyyGly: 11.3 days

Substance: GlyTrpAsnIleGly (GWNIG; printed: GlyTrpAsnIleGly)
- First-Order Deamidation Halftimes of GlyXxxAsnYyyGly: 286 days

Substance: GlyTrpAsnLeuGly (GWNLG; printed: GlyTrpAsnLeuGly)
- First-Order Deamidation Halftimes of GlyXxxAsnYyyGly: 133 days

Substance: GlyTrpAsnLysGly (GWNKG; printed: GlyTrpAsnLysGly)
- First-Order Deamidation Halftimes of GlyXxxAsnYyyGly: 59.4 days

Substance: GlyTrpAsnMetGly (GWNMG; printed: GlyTrpAsnMetGly)
- First-Order Deamidation Halftimes of GlyXxxAsnYyyGly: 64.2 days

Substance: GlyTrpAsnPheGly (GWNFG; printed: GlyTrpAsnPheGly)
- First-Order Deamidation Halftimes of GlyXxxAsnYyyGly: 71.1 days
